From patent US20210032299A1 (Eli Lilly, published 2021) come the findings set out here.

B1: Example 14 (peptide)
peptide: Y[dA]EGTFISDYSILLDKK([AEEA-AEEA-γGlu-C20 diacid])HQQDFVEWLLAQGPSSGAPPPS-NH2
modifications: N-terminus assumed
SMILES: CC[C@H](C)[C@H](NC(=O)[C@H](CO)NC(=O)[C@H](Cc1ccc(O)cc1)NC(=O)[C@H](CC(=O)O)NC(=O)[C@H](CO)NC(=O)[C@@H](NC(=O)[C@H](Cc1ccccc1)NC(=O)[C@@H](NC(=O)CNC(=O)[C@H](CCC(=O)O)NC(=O)[C@@H](C)NC(=O)[C@@H](N)Cc1ccc(O)cc1)[C@@H](C)O)[C@@H](C)CC)C(=O)N[C@@H](CC(C)C)C(=O)N[C@@H](CC(C)C)C(=O)N[C@@H](CC(=O)O)C(=O)N[C@@H](CCCCN)C(=O)N[C@@H](CCCCNC(=O)COCCOCCNC(=O)COCCOCCNC(=O)CC[C@H](NC(=O)CCCCCCCCCCCCCCCCCCC(=O)O)C(=O)O)C(=O)N[C@@H](Cc1c[nH]cn1)C(=O)N[C@@H](CCC(N)=O)C(=O)N[C@@H](CCC(N)=O)C(=O)N[C@@H](CC(=O)O)C(=O)N[C@@H](Cc1ccccc1)C(=O)N[C@H](C(=O)N[C@@H](CCC(=O)O)C(=O)N[C@@H](Cc1c[nH]c2ccccc12)C(=O)N[C@@H](CC(C)C)C(=O)N[C@@H](CC(C)C)C(=O)N[C@@H](C)C(=O)N[C@@H](CCC(N)=O)C(=O)NCC(=O)N1CCC[C@H]1C(=O)N[C@@H](CO)C(=O)N[C@@H](CO)C(=O)NCC(=O)N[C@@H](C)C(=O)N1CCC[C@H]1C(=O)N1CCC[C@H]1C(=O)N1CCC[C@H]1C(=O)N[C@@H](CO)C(N)=O)C(C)C
B2: Example 15 (peptide)
peptide: Y[dA]EGTFISDYSILLDKK([AEEA-AEEA-γGlu-C20 diacid])HQQDFVNYLLAQGPSSGAPPPS-NH2
modifications: N-terminus assumed
SMILES: CC[C@H](C)[C@H](NC(=O)[C@H](CO)NC(=O)[C@H](Cc1ccc(O)cc1)NC(=O)[C@H](CC(=O)O)NC(=O)[C@H](CO)NC(=O)[C@@H](NC(=O)[C@H](Cc1ccccc1)NC(=O)[C@@H](NC(=O)CNC(=O)[C@H](CCC(=O)O)NC(=O)[C@@H](C)NC(=O)[C@@H](N)Cc1ccc(O)cc1)[C@@H](C)O)[C@@H](C)CC)C(=O)N[C@@H](CC(C)C)C(=O)N[C@@H](CC(C)C)C(=O)N[C@@H](CC(=O)O)C(=O)N[C@@H](CCCCN)C(=O)N[C@@H](CCCCNC(=O)COCCOCCNC(=O)COCCOCCNC(=O)CC[C@H](NC(=O)CCCCCCCCCCCCCCCCCCC(=O)O)C(=O)O)C(=O)N[C@@H](Cc1c[nH]cn1)C(=O)N[C@@H](CCC(N)=O)C(=O)N[C@@H](CCC(N)=O)C(=O)N[C@@H](CC(=O)O)C(=O)N[C@@H](Cc1ccccc1)C(=O)N[C@H](C(=O)N[C@@H](CC(N)=O)C(=O)N[C@@H](Cc1ccc(O)cc1)C(=O)N[C@@H](CC(C)C)C(=O)N[C@@H](CC(C)C)C(=O)N[C@@H](C)C(=O)N[C@@H](CCC(N)=O)C(=O)NCC(=O)N1CCC[C@H]1C(=O)N[C@@H](CO)C(=O)N[C@@H](CO)C(=O)NCC(=O)N[C@@H](C)C(=O)N1CCC[C@H]1C(=O)N1CCC[C@H]1C(=O)N1CCC[C@H]1C(=O)N[C@@H](CO)C(N)=O)C(C)C
B3: Example 75 (peptide)
peptide: YXEGTXISDYSIXLDKKHQXDFVEXLLETGPSSGAPPPS
modifications: Aib2; Iva6; αMeL13; K17((2-[2-(2-Amino-ethoxy)-ethoxy]-acetyl)2-(γ-Glu)-CO-(CH2)18-CO2H); Aib20; 4-Pal25; C-terminal amide

Starred links: 1 amine or outer side, 2 acyl side, 3 side chain; linkers in the order of their positions; H or OH if unused. Non-standard residues stand in square brackets, D forms with d. Groups on a side chain read outwards from the residue. No end group written: not given here. *: point of attachment. C20 diacid = O=C(O)CCCCCCCCCCCCCCCCCCC(=O)*; γGlu = O=C(O)[C@H](CCC(=O)[*:2])N[*:1]; AEEA = NCCOCCOCC(=O)O

This test addresses T1, human glucose-dependent insulinotropic polypeptide (GIP) receptor (human, UniProt P48546 22-466).
T1 construct: whole, on cells; Assayed as crude membranes of stably transfected CHO cells; also called hGIPR; human GIP receptor
T1 sequence (looked up): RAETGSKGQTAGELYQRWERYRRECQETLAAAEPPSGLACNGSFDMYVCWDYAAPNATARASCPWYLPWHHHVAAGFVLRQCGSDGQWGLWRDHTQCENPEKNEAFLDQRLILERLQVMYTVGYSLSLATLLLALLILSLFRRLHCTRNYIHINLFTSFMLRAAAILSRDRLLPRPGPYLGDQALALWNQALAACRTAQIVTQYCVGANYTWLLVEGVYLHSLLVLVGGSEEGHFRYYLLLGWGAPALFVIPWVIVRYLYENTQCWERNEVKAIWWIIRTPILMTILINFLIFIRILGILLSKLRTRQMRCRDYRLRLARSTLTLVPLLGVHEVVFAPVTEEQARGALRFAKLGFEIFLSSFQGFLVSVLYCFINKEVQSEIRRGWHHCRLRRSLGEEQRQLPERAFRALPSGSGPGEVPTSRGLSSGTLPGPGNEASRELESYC
Description: SPA, displacement of [125I]-GIP from hGIPR membranes, 0.1% bacitracin. How it is done:
The binding buffer contains 25 mM HEPES, pH 7.4, 2.5 mM CaCl₂, 1 mM MgCl₂, 0.1% (w/v) bacitracin, 0.003% (w/v) TWEEN®-20, and Roche Complete™ Protease Inhibitors without EDTA. […] Plates are sealed and mixed on a plate shaker (setting 6) for 1 minute and read with a PerkinElmer Trilux MicroBeta® scintillation counter after 2.5 to 12 hours of incubation/settling time at room temperature.
Data are analyzed using four-parameter (curve maximum, curve minimum, […], Hill slope) nonlinear regression routines (Genedata Screener, version 12.0.4, Genedata AG, Basal, Switzerland). […] Values for Kᵢ are reported as the geometric mean, with error expressed as the standard error of the mean (SEM) and n is equal to the number of independent replicates (determined in assays performed on different days). Geometric Means are calculated as follows: […]
A word on the Ki: it is a dissociation constant, usually derived from enzyme kinetics or from competition with a known ligand. Higher therefore signals weaker binding. As for B1, affinity was put at a Ki of 460 pM.

B2 had a Ki of 471 pM.

For B3, the affinity, expressed as Ki, was 62.6 pM.
